What follows are binders tested against acetylcholine receptor (assay: SPR, AchR immobilised on CM5 chip, peptide at 10 uM).

Binding affinity (RU)	Binder
15	KTWMK [5mer-849]

Each binder was assayed against acetylcholine receptor (assay: SPR, AchR immobilised on chip, peptide 10 uM).

Binder	Binding affinity (RU)
KRLVQK [6mer-1-227]	139
RDTGK [5mer-1147]	16
KKSQQR [6mer-1-207]	151
RKVLCR [6mer-1-239]	136
KKQVTR [6mer-1-218]	126
KKWFQR [6mer-1-221]	148
RRWITR [6mer-1-226]	128
RRSYCK [6mer-1-214]	139
KKRQRR [6mer-1-204]	154
RMPAK [5mer-1145]	25
RYEDR [5mer-845]	15
RRRICR [6mer-1-212]	148
KTDPR [5mer-844]	32
RATGK [5mer-1143]	19
RRGISR [6mer-1-234]	142
KRSIQR [6mer-1-208]	122
RRSRRR [6mer-1-240]	148
KRVLQR [6mer-1-217]	135
RRQLTK [6mer-1-202]	154
RRRLLR [6mer-1-229]	153
KKWQSR [6mer-1-233]	128
RRRVRR [6mer-1-222]	145
RKLISR [6mer-1-236]	151
RRLFCR [6mer-1-219]	121

Binder	Binding affinity (RU)
RDWFR [5mer-1148]	24
RPDWR [5mer-846]	32
KAPEK [5mer-847]	28
RKSRYK [6mer-1-237]	137
RYMVK [5mer-848]	12
KRQRQK [6mer-1-220]	148
RKSIQR [6mer-1-216]	148
RKGYTR [6mer-1-209]	121
KKRRRK [6mer-1-223]	133
KKQLLR [6mer-1-211]	123
RRLQTR [6mer-1-206]	121
KAKNR [5mer-1144]	33
KPHGR [5mer-1146]	23
KKGQQK [6mer-1-238]	154
KRQRTK [6mer-1-231]	136
RKRYSR [6mer-1-215]	136
KKRYCR [6mer-1-235]	148
RRQITR [6mer-1-203]	142
KRGFLR [6mer-1-224]	142
RKGYCK [6mer-1-230]	128
KRRVRK [6mer-1-213]	127
RRRICK [6mer-1-232]	146
KRWRLR [6mer-1-205]	133
KRVIYK [6mer-1-228]	139

Next, values leading:

Binding affinity (RU)	Binder
144	RRRVQK [6mer-1-244]
145	RKSVCR [6mer-1-265]
139	KKGFQK [6mer-1-255]
133	RKVQSK [6mer-1-251]
139	RKQLQR [6mer-1-262]
142	RRGFRR [6mer-1-245]
151	RRLIYK [6mer-1-248]
141	RKQRTK [6mer-1-260]
148	RRLYYK [6mer-1-241]
141	KRRYRK [6mer-1-259]
131	RRWIRR [6mer-1-252]
122	KKVRQK [6mer-1-247]
142	RKGVSR [6mer-1-249]
136	KKWYLR [6mer-1-243]
128	RRQYQR [6mer-1-264]
125	KRVRTK [6mer-1-256]
145	RRVQLK [6mer-1-253]
142	RKLICK [6mer-1-1225]
146	RKSYTK [6mer-1-263]
144	KKGRLK [6mer-1-266]
139	KRRLLR [6mer-1-267]
137	KKLQYK [6mer-1-258]
121	KRWVTR [6mer-1-261]
122	RRLVSR [6mer-1-246]
124	RKWVTR [6mer-1-257]
148	KRQYLK [6mer-1-242]
144	KRRQSK [6mer-1-268]
142	RRVICR [6mer-1-250]
137	RKSLSK [6mer-1-254]

— patent US20250011363A1, “OPTIMIZED SHORTENED PEPTIDE THAT BINDS TO ACETYLCHOLINE RECEPTOR, AND USE THEREOF” (SKINMED CO., LTD., priority 2021, published 2025)
